Results from article PMC2654063, “Three New Structures of Left-Handed RadA Helical Filaments: Structural Flexibility of N-Terminal Domain Is Critical for Recombinase Activity” (PLoS ONE, 2009).
Numbering of substitutions follows the chain as printed. Names may count otherwise.

B1: SsoRadA (Sulfolobus solfataricus RadA) (Saccharolobus solfataricus P2) (protein)
chain: MSNEVEQKKNIKTINDLPGISQTVINKLIEAGYSSLETLAVASPQDLSVAAGIPLSTAQKIIKEARDALDIRFKTALEVKKERMNVKKISTGSQALDGLLAGGIETRTMTEFFGEFGSGKTQLCHQLSVNVQLPPEKGGLSGKAVYIDTEGTFRWERIENMAKALGLDIDNVMNNIYYIRAINTDHQIAIVDDLQELVSKDPSIKLIVVDSVTSHFRAEYPGRENLAVRQQKLNKHLHQLTRLAEVYDIAVIITNQVMARPDMFYGDPTVAVGGHTLYHVPGIRIQLKKSRGNRRIARVVDAPHLPEGEVVFALTEEGIRDAEE
notes: purified recombinant protein; homo-oligomeric nucleoprotein filament on ssDNA; F73, R72, R83 given
B2: SsoRadA (Sulfolobus solfataricus RadA) (Saccharolobus solfataricus P2; R72G) (protein)
chain: B1 chain with R72G
notes: as for B1
B3: SsoRadA (Sulfolobus solfataricus RadA) (Saccharolobus solfataricus P2; R72P) (protein)
chain: B1 chain with R72P
notes: as for B1
B4: SsoRadA (Sulfolobus solfataricus RadA) (Saccharolobus solfataricus P2; R72A) (protein)
chain: B1 chain with R72A
notes: as for B1

Substrate: Nc1ncnc2c1ncn2[C@@H]1O[C@H](COP(=O)(O)OP(=O)(O)OP(=O)(O)O)[C@@H](O)[C@H]1O
Experiment: purified protein
Type: biochemical, Saccharolobus solfataricus
Conditions: with ssDNA; labelled compound

**Q.** What does the source list for B1?
**A.** Km: 398 ± 52 µM; kcat: 0.000617 ± 5e-05 s⁻¹

**Q.** What does the source list for B2?
**A.** Km: 176 ± 23 µM; kcat: 0.000267 ± 1.7e-05 s⁻¹

**Q.** What does the source list for B3?
**A.** Km: 143 ± 10 µM; kcat: 0.000267 ± 1.7e-05 s⁻¹

**Q.** With B4 as the protein, how does the Km read?
**A.** The Km was 37 ± 11 µM.

**Q.** What about the kcat of the same protein?
**A.** The kcat was 0.000183 ± 3.3e-05 s⁻¹.
